From article PMC9482650, “Quantitative fragmentomics allow affinity mapping of interactomes” (Nature Communications, 2022)

Columns and labels:
Experiment in all cases: holdup assay
Design in all cases: key: below the threshold = too weak to quantify, mostly under pKd 3.1 to 4
[1] = target: T1, APBA3_1, O96018
T1 sequence (O96018 389-490, limits assumed, looked up): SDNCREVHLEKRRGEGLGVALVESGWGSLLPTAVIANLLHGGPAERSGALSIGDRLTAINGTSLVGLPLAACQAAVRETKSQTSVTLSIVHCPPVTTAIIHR

[2] = target: T2, CARD11, Q9BXL7
T2 sequence (Q9BXL7 662-765, limits assumed, looked up): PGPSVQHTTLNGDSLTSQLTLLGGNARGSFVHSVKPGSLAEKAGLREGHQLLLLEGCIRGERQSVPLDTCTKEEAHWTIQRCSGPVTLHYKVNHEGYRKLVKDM

[3] = target: T3, DFNB31_1, Q9P202
T3 sequence (Q9P202 135-233, limits assumed, looked up): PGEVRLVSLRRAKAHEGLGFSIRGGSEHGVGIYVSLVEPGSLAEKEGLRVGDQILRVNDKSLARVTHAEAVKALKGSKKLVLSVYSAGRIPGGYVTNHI

[4] = target: DLG2_2, Q15700
Sequence of DLG2_2, Q15700 (Q15700 189-283): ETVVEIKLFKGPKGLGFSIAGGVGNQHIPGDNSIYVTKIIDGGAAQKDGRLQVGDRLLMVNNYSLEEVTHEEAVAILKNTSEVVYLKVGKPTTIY

[5] = target: T4, DVL3, Q92997
T4 sequence (Q92997 244-331, limits assumed, looked up): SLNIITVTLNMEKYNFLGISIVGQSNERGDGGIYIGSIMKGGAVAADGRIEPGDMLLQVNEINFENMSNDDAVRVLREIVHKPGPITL

[6] = target: GORASP1, Q9BQQ3
Sequence of GORASP1, Q9BQQ3 (Q9BQQ3 1-208): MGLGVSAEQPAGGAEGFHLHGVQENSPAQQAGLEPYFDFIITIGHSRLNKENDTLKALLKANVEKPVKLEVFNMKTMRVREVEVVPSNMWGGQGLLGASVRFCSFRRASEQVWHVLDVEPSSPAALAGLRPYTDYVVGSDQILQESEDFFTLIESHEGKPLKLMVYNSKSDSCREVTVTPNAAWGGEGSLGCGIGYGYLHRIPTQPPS

[7] = target: GORASP2, Q9H8Y8
[8] = target: T5, GRIP1_2, Q9Y3R0
T5 sequence (Q9Y3R0 145-248, limits assumed, looked up): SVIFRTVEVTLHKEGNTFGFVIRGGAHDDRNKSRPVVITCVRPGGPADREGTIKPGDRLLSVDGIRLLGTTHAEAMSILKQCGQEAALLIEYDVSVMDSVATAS

[9] = target: GRIP2_3, Q9C0E4
Sequence of GRIP2_3, Q9C0E4 (Q9C0E4 238-339): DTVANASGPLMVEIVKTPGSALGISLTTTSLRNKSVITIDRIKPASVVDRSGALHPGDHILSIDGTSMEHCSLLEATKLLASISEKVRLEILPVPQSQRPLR

[10] = target: GRIP2_6, Q9C0E4
Sequence of GRIP2_6, Q9C0E4 (Q9C0E4 648-740): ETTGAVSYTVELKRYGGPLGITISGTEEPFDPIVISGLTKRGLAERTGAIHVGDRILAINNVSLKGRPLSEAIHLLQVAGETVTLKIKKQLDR

[11] = target: GRIP2_7, Q9C0E4
Sequence of GRIP2_7, Q9C0E4 (Q9C0E4 934-1023): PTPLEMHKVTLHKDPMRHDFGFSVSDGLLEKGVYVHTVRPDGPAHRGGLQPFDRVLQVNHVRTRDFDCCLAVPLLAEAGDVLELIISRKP

[12] = target: T6, HTRA3, P83110
T6 sequence (P83110 354-453, limits assumed, looked up): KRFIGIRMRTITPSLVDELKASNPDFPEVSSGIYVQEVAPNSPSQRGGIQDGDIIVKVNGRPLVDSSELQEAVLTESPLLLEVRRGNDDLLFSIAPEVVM

[13] = target: Inadl_1, Q8NI35
Sequence of Inadl_1, Q8NI35 (Q8NI35 113-229): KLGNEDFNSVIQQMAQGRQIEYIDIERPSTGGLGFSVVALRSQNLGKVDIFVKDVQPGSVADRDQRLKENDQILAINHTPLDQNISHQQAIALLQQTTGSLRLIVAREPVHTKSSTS

[14] = target: Inadl_4, Q8NI35
Sequence of Inadl_4, Q8NI35 (Q8NI35 547-651): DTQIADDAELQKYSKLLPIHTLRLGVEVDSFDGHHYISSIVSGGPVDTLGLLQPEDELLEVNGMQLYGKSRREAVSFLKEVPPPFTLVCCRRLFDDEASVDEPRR

[15] = target: Inadl_9, Q8NI35
Sequence of Inadl_9, Q8NI35 (Q8NI35 1530-1615): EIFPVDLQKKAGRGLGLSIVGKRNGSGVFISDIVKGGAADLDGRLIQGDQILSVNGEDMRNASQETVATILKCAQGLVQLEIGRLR

[16] = target: LAP2, Q96RT1
Sequence of LAP2, Q96RT1 (Q96RT1 other isoform, or with tags, fused parts or gaps): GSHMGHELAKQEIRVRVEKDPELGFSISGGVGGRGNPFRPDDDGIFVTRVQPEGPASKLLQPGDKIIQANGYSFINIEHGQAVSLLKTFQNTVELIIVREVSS

[17] = target: T7, LIN7A, O14910
T7 sequence (O14910 103-200, limits assumed, looked up): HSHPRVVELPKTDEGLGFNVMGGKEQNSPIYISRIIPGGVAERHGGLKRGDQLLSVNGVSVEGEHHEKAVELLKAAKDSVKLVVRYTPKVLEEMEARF

[18] = target: T8, LNX2_2, Q8N448
T8 sequence (Q8N448 334-432, limits assumed, looked up): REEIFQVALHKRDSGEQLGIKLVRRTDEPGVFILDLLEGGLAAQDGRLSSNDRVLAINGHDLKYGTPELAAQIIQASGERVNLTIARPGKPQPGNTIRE

[19] = target: MAGI1_1, Q96QZ7
Sequence of MAGI1_1, Q96QZ7 (Q96QZ7 1-106): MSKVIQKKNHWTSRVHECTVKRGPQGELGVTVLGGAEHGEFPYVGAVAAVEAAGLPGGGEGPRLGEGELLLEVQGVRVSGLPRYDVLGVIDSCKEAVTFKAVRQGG

[20] = target: MAGI2_5, Q86UL8
Sequence of MAGI2_5, Q86UL8 (Q86UL8 915-1017): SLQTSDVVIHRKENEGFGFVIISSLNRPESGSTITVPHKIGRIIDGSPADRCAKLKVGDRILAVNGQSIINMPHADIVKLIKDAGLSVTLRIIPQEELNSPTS

[21] = target: MAGI2_6, Q86UL8
Sequence of MAGI2_6, Q86UL8 (Q86UL8 1141-1229): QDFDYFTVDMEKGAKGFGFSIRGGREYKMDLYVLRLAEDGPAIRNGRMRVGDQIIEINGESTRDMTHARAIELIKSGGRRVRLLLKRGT

[22] = target: T9, MPDZ_12, O75970
T9 sequence (O75970 1857-1958, limits assumed, looked up): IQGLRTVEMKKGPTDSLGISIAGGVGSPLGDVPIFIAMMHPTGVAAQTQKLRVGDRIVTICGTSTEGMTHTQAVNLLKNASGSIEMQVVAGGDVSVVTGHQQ

[23] = target: NHERF4_4, Q86UT5
Sequence of NHERF4_4, Q86UT5 (Q86UT5 464-550): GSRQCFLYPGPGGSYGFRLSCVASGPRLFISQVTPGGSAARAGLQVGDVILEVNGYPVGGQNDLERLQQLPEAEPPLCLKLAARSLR

[24] = target: T10, PDZD7_3, Q9H5P4
T10 sequence (Q9H5P4 857-944, limits assumed, looked up): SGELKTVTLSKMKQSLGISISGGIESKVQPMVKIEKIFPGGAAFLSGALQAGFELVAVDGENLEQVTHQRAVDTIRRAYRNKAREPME

[25] = target: T11, PDZRN3_1, Q9UPQ7
T11 sequence (Q9UPQ7 244-349, limits assumed, looked up): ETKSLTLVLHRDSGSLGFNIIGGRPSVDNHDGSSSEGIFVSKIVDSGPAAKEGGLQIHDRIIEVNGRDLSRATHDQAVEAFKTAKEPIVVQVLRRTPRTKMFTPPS

[26] = target: SCRIB_3, Q14160
Sequence of SCRIB_3, Q14160 (Q14160 999-1103): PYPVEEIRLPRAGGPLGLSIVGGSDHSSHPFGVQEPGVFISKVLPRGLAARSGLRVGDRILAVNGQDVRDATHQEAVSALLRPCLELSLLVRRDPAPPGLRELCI

[27] = target: TJP2_1, Q9UDY2
Sequence of TJP2_1, Q9UDY2 (Q9UDY2 24-128): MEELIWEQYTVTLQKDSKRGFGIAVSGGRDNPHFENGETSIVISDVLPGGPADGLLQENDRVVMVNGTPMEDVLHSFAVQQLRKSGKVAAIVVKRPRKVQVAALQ

[28] = plain residues with an end cap or a label only (N-terminal biotin on a linker: ado-ado)
[29] = modified: phospho on T at position -1 from the C-terminal residue
[30] = modified: phospho on T at position -2 from the C-terminal residue

In the case of LEPAVRSSEL [SH2D3C, Q8N5H7], the pKd [1, 28] is reported as “below the threshold”, the pKd [2, 28] is reported as “below the threshold” and the pKd [3, 28] is reported as “below the threshold”. The pKd [4, 28] was “below the threshold”, the pKd [5, 28] was “below the threshold” and the pKd [6, 28] was “below the threshold”. The pKd [7, 28] was “below the threshold”, the pKd [8, 28] was “below the threshold” and the pKd [9, 28] was “below the threshold”. The pKd [10, 28] was “below the threshold”, the pKd [11, 28] was “below the threshold” and the pKd [12, 28] was “below the threshold”. The pKd [13, 28] was “below the threshold”, the pKd [14, 28] was “below the threshold” and the pKd [15, 28] was “below the threshold”. The pKd [16, 28] was “below the threshold”, the pKd [17, 28] was “below the threshold” and the pKd [18, 28] was “below the threshold”. For the same binder, the pKd [19, 28] was “below the threshold”, the pKd [20, 28] was 4.28 and the pKd [21, 28] was 3.96. The pKd [22, 28] was “below the threshold”, the pKd [23, 28] was 3.6 and the pKd [24, 28] was 4.71. The pKd [25, 28] was 4.13, the pKd [26, 28] was 4.39 and the pKd [27, 28] was “below the threshold”.

In the case of RRVRKLPSTTL [RPS6KA1_-1P, Q15418], the pKd [1, 29] is reported as “below the threshold”, the pKd [2, 29] is reported as “below the threshold” and the pKd [3, 29] is reported as 3.6. The pKd [4, 29] was 3.83, the pKd [5, 29] was “below the threshold” and the pKd [6, 29] was 3.6. The pKd [7, 29] was 3.76, the pKd [8, 29] was “below the threshold” and the pKd [9, 29] was “below the threshold”. For the same binder, the pKd [10, 29] was “below the threshold”, the pKd [11, 29] was “below the threshold” and the pKd [12, 29] was 3.34. The pKd [13, 29] was 3.35, the pKd [14, 29] was “below the threshold” and the pKd [15, 29] was “below the threshold”. For the same binder, the pKd [16, 29] was “below the threshold”, the pKd [17, 29] was “below the threshold” and the pKd [18, 29] was “below the threshold”. It also gave a pKd [19, 29] of 3.33, a pKd [20, 29] of 3.56 and a pKd [21, 29] of 3.83. The pKd [22, 29] was “below the threshold”, the pKd [23, 29] was “below the threshold” and the pKd [24, 29] was 4.91. For the same binder, the pKd [25, 29] was 4.26, the pKd [26, 29] was 4.61 and the pKd [27, 29] was “below the threshold”.

For RRVRKLPSTTL [RPS6KA1_-2P, Q15418], the pKd [1, 30] was “below the threshold”, the pKd [2, 30] was “below the threshold” and the pKd [3, 30] was “below the threshold”. For the same binder, the pKd [4, 30] was “below the threshold”, the pKd [5, 30] was “below the threshold” and the pKd [6, 30] was 3.75. The pKd [7, 30] was 3.71, the pKd [8, 30] was 3.52 and the pKd [9, 30] was “below the threshold”. For the same binder, the pKd [10, 30] was “below the threshold”, the pKd [11, 30] was “below the threshold” and the pKd [12, 30] was “below the threshold”. For the same binder, the pKd [13, 30] was “below the threshold”, the pKd [14, 30] was “below the threshold” and the pKd [15, 30] was “below the threshold”. The pKd [16, 30] was “below the threshold”, the pKd [17, 30] was “below the threshold” and the pKd [18, 30] was “below the threshold”. For the same binder, the pKd [19, 30] was “below the threshold”, the pKd [20, 30] was “below the threshold” and the pKd [21, 30] was “below the threshold”. For the same binder, the pKd [22, 30] was “below the threshold”, the pKd [23, 30] was “below the threshold” and the pKd [24, 30] was 3.5. For the same binder, the pKd [25, 30] was “below the threshold”, the pKd [26, 30] was “below the threshold” and the pKd [27, 30] was “below the threshold”.

In the case of GQSVDLVFPV [AKIP1, Q9NQ31], the pKd [1, 28] is reported as “below the threshold”, the pKd [2, 28] is reported as 3.63 and the pKd [3, 28] is reported as “below the threshold”. For the same binder, the pKd [4, 28] was “below the threshold”, the pKd [5, 28] was “below the threshold” and the pKd [6, 28] was 3.92. The pKd [7, 28] was 4.37, the pKd [8, 28] was “below the threshold” and the pKd [9, 28] was “below the threshold”. For the same binder, the pKd [10, 28] was “below the threshold”, the pKd [11, 28] was 4.08 and the pKd [12, 28] was “below the threshold”. For the same binder, the pKd [13, 28] was 3.5, the pKd [14, 28] was “below the threshold” and the pKd [15, 28] was 3.5. For the same binder, the pKd [16, 28] was “below the threshold”, the pKd [17, 28] was “below the threshold” and the pKd [18, 28] was 3.87. The pKd [19, 28] was “below the threshold”, the pKd [20, 28] was “below the threshold” and the pKd [21, 28] was “below the threshold”. For the same binder, the pKd [22, 28] was 3.58, the pKd [23, 28] was “below the threshold” and the pKd [24, 28] was “below the threshold”. For the same binder, the pKd [25, 28] was 3.47, the pKd [26, 28] was “below the threshold” and the pKd [27, 28] was “below the threshold”.

In the case of DQPLEKSTKL [AKAP10, O43572], the pKd [1, 28] is reported as “below the threshold”, the pKd [2, 28] is reported as “below the threshold” and the pKd [3, 28] is reported as 3.73. For the same binder, the pKd [4, 28] was “below the threshold”, the pKd [5, 28] was “below the threshold” and the pKd [6, 28] was “below the threshold”. For the same binder, the pKd [7, 28] was “below the threshold”, the pKd [8, 28] was “below the threshold” and the pKd [9, 28] was “below the threshold”. The pKd [10, 28] was “below the threshold”, the pKd [11, 28] was “below the threshold” and the pKd [12, 28] was “below the threshold”. For the same binder, the pKd [13, 28] was “below the threshold”, the pKd [14, 28] was “below the threshold” and the pKd [15, 28] was “below the threshold”. For the same binder, the pKd [16, 28] was “below the threshold”, the pKd [17, 28] was “below the threshold” and the pKd [18, 28] was “below the threshold”. For the same binder, the pKd [19, 28] was “below the threshold”, the pKd [20, 28] was 4.02 and the pKd [21, 28] was “below the threshold”. The pKd [22, 28] was 3.73, the pKd [23, 28] was “below the threshold” and the pKd [24, 28] was 4.54. The pKd [25, 28] was 3.79, the pKd [26, 28] was 4.14 and the pKd [27, 28] was “below the threshold”.
